Assay results taken from publication PMC9482650, “Quantitative fragmentomics allow affinity mapping of interactomes” (Nature Communications, 2022).

T1: RADIL, Q96JH8
T1 sequence (Q96JH8 971-1071, limits assumed, looked up): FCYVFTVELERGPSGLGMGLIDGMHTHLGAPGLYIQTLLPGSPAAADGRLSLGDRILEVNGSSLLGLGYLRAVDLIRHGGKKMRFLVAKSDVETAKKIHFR

T2: ARHGEF11, O15085
T2 sequence (O15085 42-136, limits assumed, looked up): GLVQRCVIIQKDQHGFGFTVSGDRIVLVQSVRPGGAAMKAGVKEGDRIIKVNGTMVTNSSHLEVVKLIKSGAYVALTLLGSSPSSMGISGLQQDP

T3: GRIP1_5, Q9Y3R0
T3 sequence (Q9Y3R0 568-668, limits assumed, looked up): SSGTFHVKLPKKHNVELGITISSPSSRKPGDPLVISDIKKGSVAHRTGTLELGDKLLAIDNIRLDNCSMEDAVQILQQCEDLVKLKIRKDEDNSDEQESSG

T4: SIPA1L2, Q9P2F8
T4 sequence (Q9P2F8 945-1036, limits assumed, looked up): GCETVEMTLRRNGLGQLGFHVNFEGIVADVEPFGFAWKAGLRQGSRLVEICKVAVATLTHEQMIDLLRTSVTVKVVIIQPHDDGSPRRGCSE

T5: MPP6, Q9NZW5
T5 sequence (Q9NZW5 125-219, limits assumed, looked up): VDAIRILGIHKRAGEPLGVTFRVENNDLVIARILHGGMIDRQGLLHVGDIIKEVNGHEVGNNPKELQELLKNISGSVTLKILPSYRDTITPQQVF

T6: SHANK1, Q9Y566
T6 sequence (Q9Y566 658-767, limits assumed, looked up): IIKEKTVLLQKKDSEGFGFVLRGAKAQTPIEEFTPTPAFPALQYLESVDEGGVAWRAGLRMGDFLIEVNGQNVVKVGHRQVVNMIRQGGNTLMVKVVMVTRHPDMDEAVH

T7: DLG3_1, Q92796
T7 sequence (Q92796 125-227, limits assumed, looked up): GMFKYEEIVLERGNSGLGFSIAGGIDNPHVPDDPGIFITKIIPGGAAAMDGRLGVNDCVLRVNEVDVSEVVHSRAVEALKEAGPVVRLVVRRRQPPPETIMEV

T8: LIN7A, O14910
T8 sequence (O14910 103-200, limits assumed, looked up): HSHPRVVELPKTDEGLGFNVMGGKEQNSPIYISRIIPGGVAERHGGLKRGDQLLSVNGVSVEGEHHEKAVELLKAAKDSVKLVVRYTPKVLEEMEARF

T9: DLG3_2, Q92796
T9 sequence (Q92796 221-321, limits assumed, looked up): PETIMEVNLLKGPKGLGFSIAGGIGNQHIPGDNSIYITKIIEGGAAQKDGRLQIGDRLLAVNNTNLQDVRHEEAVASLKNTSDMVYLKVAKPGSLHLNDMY

B1: HCN2, Q9UL51 (peptide)
chain: SARSRLSSNL
B2: AQP6, Q13520 (peptide)
chain: GSGAVEMESV

Molecular target: GRASP, Q7Z6J2
Assay: holdup assay
Parameters: key: below the threshold = too weak to quantify, mostly under pKd 3.1 to 4
Settings: plain residues with an end cap or a label only (N-terminal biotin on a linker: ado-ado)

Sequence of GRASP, Q7Z6J2 (Q7Z6J2 96-193): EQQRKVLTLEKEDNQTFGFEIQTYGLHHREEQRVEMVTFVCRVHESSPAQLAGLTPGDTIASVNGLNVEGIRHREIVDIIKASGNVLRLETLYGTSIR

| Binder | pKd |
| --- | --- |
| B1 | 4 |
| B2 | below the threshold |

Molecular target: TJP1_2, Q07157
Assay: holdup assay
Parameters: key: below the threshold = too weak to quantify, mostly under pKd 3.1 to 4
Settings: plain residues with an end cap or a label only (N-terminal biotin on a linker: ado-ado)

Sequence of TJP1_2, Q07157 (Q07157 181-274): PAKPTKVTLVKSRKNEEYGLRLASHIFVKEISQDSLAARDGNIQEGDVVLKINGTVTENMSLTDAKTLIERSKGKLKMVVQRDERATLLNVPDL

| Binder | pKd |
| --- | --- |
| B1 | below the threshold |
| B2 | below the threshold |

Molecular target: T1, RADIL, Q96JH8
Assay: holdup assay
Parameters: key: below the threshold = too weak to quantify, mostly under pKd 3.1 to 4
Settings: plain residues with an end cap or a label only (N-terminal biotin on a linker: ado-ado)

| Binder | pKd |
| --- | --- |
| B1 | below the threshold |
| B2 | 3.56 |

Molecular target: DLG1_3, Q12959
Assay: holdup assay
Parameters: key: below the threshold = too weak to quantify, mostly under pKd 3.1 to 4
Settings: plain residues with an end cap or a label only (N-terminal biotin on a linker: ado-ado)

| Binder | pKd |
| --- | --- |
| B1 | below the threshold |
| B2 | below the threshold |

Molecular target: MAGI2_2, Q86UL8
Assay: holdup assay
Parameters: key: below the threshold = too weak to quantify, mostly under pKd 3.1 to 4
Settings: plain residues with an end cap or a label only (N-terminal biotin on a linker: ado-ado)

Sequence of MAGI2_2, Q86UL8 (Q86UL8 410-522): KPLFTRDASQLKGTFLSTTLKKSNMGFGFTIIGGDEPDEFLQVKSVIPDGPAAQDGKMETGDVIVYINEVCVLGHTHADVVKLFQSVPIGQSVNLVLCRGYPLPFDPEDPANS

| Binder | pKd |
| --- | --- |
| B1 | 3.71 |
| B2 | below the threshold |

Molecular target: SCRIB_3, Q14160
Assay: holdup assay
Parameters: key: below the threshold = too weak to quantify, mostly under pKd 3.1 to 4
Settings: plain residues with an end cap or a label only (N-terminal biotin on a linker: ado-ado)

Sequence of SCRIB_3, Q14160 (Q14160 999-1103): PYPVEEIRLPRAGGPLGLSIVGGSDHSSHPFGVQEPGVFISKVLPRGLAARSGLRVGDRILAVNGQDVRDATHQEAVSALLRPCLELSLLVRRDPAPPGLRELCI

| Binder | pKd |
| --- | --- |
| B1 | 4.32 |
| B2 | below the threshold |

Molecular target: MAGI1_2, Q96QZ7
Assay: holdup assay
Parameters: key: below the threshold = too weak to quantify, mostly under pKd 3.1 to 4
Settings: plain residues with an end cap or a label only (N-terminal biotin on a linker: ado-ado)

Sequence of MAGI1_2, Q96QZ7 (Q96QZ7 456-580): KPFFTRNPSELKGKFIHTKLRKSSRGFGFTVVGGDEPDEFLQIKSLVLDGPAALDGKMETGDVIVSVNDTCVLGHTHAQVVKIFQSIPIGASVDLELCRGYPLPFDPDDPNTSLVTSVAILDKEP

| Binder | pKd |
| --- | --- |
| B1 | 4.17 |
| B2 | below the threshold |

Molecular target: FRMPD3, Q5JV73
Assay: holdup assay
Parameters: key: below the threshold = too weak to quantify, mostly under pKd 3.1 to 4
Settings: plain residues with an end cap or a label only (N-terminal biotin on a linker: ado-ado)

Sequence of FRMPD3, Q5JV73 (Q5JV73 12-100): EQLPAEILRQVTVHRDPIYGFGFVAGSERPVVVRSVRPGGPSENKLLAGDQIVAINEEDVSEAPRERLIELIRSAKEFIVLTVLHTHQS

| Binder | pKd |
| --- | --- |
| B1 | below the threshold |
| B2 | below the threshold |

Molecular target: T2, ARHGEF11, O15085
Assay: holdup assay
Parameters: key: below the threshold = too weak to quantify, mostly under pKd 3.1 to 4
Settings: plain residues with an end cap or a label only (N-terminal biotin on a linker: ado-ado)

| Binder | pKd |
| --- | --- |
| B1 | 3.74 |
| B2 | below the threshold |

Molecular target: SCRIB_2, Q14160
Assay: holdup assay
Parameters: key: below the threshold = too weak to quantify, mostly under pKd 3.1 to 4
Settings: plain residues with an end cap or a label only (N-terminal biotin on a linker: ado-ado)

Sequence of SCRIB_2, Q14160 (Q14160 857-960): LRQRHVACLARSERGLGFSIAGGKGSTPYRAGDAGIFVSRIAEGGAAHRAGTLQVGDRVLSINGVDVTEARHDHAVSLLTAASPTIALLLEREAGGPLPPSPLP

| Binder | pKd |
| --- | --- |
| B1 | below the threshold |
| B2 | below the threshold |

Molecular target: DLG4_3, P78352
Assay: holdup assay
Parameters: key: below the threshold = too weak to quantify, mostly under pKd 3.1 to 4
Settings: plain residues with an end cap or a label only (N-terminal biotin on a linker: ado-ado)

Sequence of DLG4_3, P78352 (P78352 306-403): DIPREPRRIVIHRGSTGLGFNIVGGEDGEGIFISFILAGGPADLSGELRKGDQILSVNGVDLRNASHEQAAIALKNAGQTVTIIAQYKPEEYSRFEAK

| Binder | pKd |
| --- | --- |
| B1 | below the threshold |
| B2 | below the threshold |

Molecular target: DLG4_2, P78352
Assay: holdup assay
Parameters: key: below the threshold = too weak to quantify, mostly under pKd 3.1 to 4
Settings: plain residues with an end cap or a label only (N-terminal biotin on a linker: ado-ado)

Sequence of DLG4_2, P78352 (P78352 155-259): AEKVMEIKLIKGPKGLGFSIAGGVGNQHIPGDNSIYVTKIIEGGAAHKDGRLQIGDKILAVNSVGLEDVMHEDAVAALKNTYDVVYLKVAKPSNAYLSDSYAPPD

| Binder | pKd |
| --- | --- |
| B1 | below the threshold |
| B2 | below the threshold |

Molecular target: GOPC, Q9HD26
Assay: holdup assay
Parameters: key: below the threshold = too weak to quantify, mostly under pKd 3.1 to 4
Settings: plain residues with an end cap or a label only (N-terminal biotin on a linker: ado-ado)

| Binder | pKd |
| --- | --- |
| B1 | 3.5 |
| B2 | below the threshold |

Molecular target: PDLIM1, O00151
Assay: holdup assay
Parameters: key: below the threshold = too weak to quantify, mostly under pKd 3.1 to 4
Settings: plain residues with an end cap or a label only (N-terminal biotin on a linker: ado-ado)

Sequence of PDLIM1, O00151 (O00151 1-87): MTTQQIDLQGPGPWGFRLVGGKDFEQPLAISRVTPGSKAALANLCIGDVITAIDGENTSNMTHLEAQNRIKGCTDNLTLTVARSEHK

| Binder | pKd |
| --- | --- |
| B1 | below the threshold |
| B2 | below the threshold |

Molecular target: LDB3, O75112
Assay: holdup assay
Parameters: key: below the threshold = too weak to quantify, mostly under pKd 3.1 to 4
Settings: plain residues with an end cap or a label only (N-terminal biotin on a linker: ado-ado)

Sequence of LDB3, O75112 (O75112 1-94): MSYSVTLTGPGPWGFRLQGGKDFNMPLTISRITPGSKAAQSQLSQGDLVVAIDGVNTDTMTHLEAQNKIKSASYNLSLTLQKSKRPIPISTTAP

| Binder | pKd |
| --- | --- |
| B1 | below the threshold |
| B2 | below the threshold |

Molecular target: AHNAK1, Q09666
Assay: holdup assay
Parameters: key: below the threshold = too weak to quantify, mostly under pKd 3.1 to 4
Settings: plain residues with an end cap or a label only (N-terminal biotin on a linker: ado-ado)

Sequence of AHNAK1, Q09666 (Q09666 4-100): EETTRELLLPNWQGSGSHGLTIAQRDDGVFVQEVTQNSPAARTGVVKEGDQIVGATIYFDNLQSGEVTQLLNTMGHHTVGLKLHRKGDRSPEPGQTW

| Binder | pKd |
| --- | --- |
| B1 | below the threshold |
| B2 | below the threshold |

Molecular target: T3, GRIP1_5, Q9Y3R0
Assay: holdup assay
Parameters: key: below the threshold = too weak to quantify, mostly under pKd 3.1 to 4
Settings: plain residues with an end cap or a label only (N-terminal biotin on a linker: ado-ado)

| Binder | pKd |
| --- | --- |
| B1 | below the threshold |
| B2 | below the threshold |

Molecular target: TJP2_1, Q9UDY2
Assay: holdup assay
Parameters: key: below the threshold = too weak to quantify, mostly under pKd 3.1 to 4
Settings: plain residues with an end cap or a label only (N-terminal biotin on a linker: ado-ado)

Sequence of TJP2_1, Q9UDY2 (Q9UDY2 24-128): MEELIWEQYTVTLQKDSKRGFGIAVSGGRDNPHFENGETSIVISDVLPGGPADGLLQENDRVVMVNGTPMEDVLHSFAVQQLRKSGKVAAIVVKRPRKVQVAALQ

| Binder | pKd |
| --- | --- |
| B1 | below the threshold |
| B2 | below the threshold |

Molecular target: IL16_1, Q14005
Assay: holdup assay
Parameters: key: below the threshold = too weak to quantify, mostly under pKd 3.1 to 4
Settings: plain residues with an end cap or a label only (N-terminal biotin on a linker: ado-ado)

Sequence of IL16_1, Q14005 (Q14005 210-306): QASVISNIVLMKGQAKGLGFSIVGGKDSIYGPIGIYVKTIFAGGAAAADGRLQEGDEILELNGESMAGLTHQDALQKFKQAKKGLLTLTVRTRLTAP

| Binder | pKd |
| --- | --- |
| B1 | below the threshold |
| B2 | below the threshold |

Molecular target: T4, SIPA1L2, Q9P2F8
Assay: holdup assay
Parameters: key: below the threshold = too weak to quantify, mostly under pKd 3.1 to 4
Settings: plain residues with an end cap or a label only (N-terminal biotin on a linker: ado-ado)

| Binder | pKd |
| --- | --- |
| B1 | below the threshold |
| B2 | below the threshold |

Molecular target: DLG1_1, Q12959
Assay: holdup assay
Parameters: key: below the threshold = too weak to quantify, mostly under pKd 3.1 to 4
Settings: plain residues with an end cap or a label only (N-terminal biotin on a linker: ado-ado)

| Binder | pKd |
| --- | --- |
| B1 | below the threshold |
| B2 | below the threshold |

Molecular target: T5, MPP6, Q9NZW5
Assay: holdup assay
Parameters: key: below the threshold = too weak to quantify, mostly under pKd 3.1 to 4
Settings: plain residues with an end cap or a label only (N-terminal biotin on a linker: ado-ado)

| Binder | pKd |
| --- | --- |
| B1 | below the threshold |
| B2 | below the threshold |

Molecular target: T6, SHANK1, Q9Y566
Assay: holdup assay
Parameters: key: below the threshold = too weak to quantify, mostly under pKd 3.1 to 4
Settings: plain residues with an end cap or a label only (N-terminal biotin on a linker: ado-ado)

| Binder | pKd |
| --- | --- |
| B1 | 4.09 |
| B2 | below the threshold |

Molecular target: GORASP2, Q9H8Y8
Assay: holdup assay
Parameters: key: below the threshold = too weak to quantify, mostly under pKd 3.1 to 4
Settings: plain residues with an end cap or a label only (N-terminal biotin on a linker: ado-ado)

| Binder | pKd |
| --- | --- |
| B1 | below the threshold |
| B2 | below the threshold |

Molecular target: T7, DLG3_1, Q92796
Assay: holdup assay
Parameters: key: below the threshold = too weak to quantify, mostly under pKd 3.1 to 4
Settings: plain residues with an end cap or a label only (N-terminal biotin on a linker: ado-ado)

| Binder | pKd |
| --- | --- |
| B1 | below the threshold |
| B2 | below the threshold |

Molecular target: T8, LIN7A, O14910
Assay: holdup assay
Parameters: key: below the threshold = too weak to quantify, mostly under pKd 3.1 to 4
Settings: plain residues with an end cap or a label only (N-terminal biotin on a linker: ado-ado)

| Binder | pKd |
| --- | --- |
| B1 | below the threshold |
| B2 | below the threshold |

Molecular target: T9, DLG3_2, Q92796
Assay: holdup assay
Parameters: key: below the threshold = too weak to quantify, mostly under pKd 3.1 to 4
Settings: plain residues with an end cap or a label only (N-terminal biotin on a linker: ado-ado)

| Binder | pKd |
| --- | --- |
| B1 | below the threshold |
| B2 | below the threshold |

Molecular target: MAGI3_2, Q5TCQ9
Assay: holdup assay
Parameters: key: below the threshold = too weak to quantify, mostly under pKd 3.1 to 4
Settings: plain residues with an end cap or a label only (N-terminal biotin on a linker: ado-ado)

Sequence of MAGI3_2, Q5TCQ9 (Q5TCQ9 398-503): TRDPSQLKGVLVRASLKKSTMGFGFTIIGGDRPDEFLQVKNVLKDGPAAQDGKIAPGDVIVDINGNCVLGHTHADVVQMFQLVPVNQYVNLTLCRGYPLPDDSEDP

| Binder | pKd |
| --- | --- |
| B1 | 4.18 |
| B2 | below the threshold |
